Test results as given in patent publication US20090053138A1, “Stabilized Aptamers to Platelet Derived Growth Factor and their Use as Oncology Therapeutics” (priority 2002, published 2009).
Strand notation (5' to 3'): a small letter for the sugar, then the base; units joined by * are phosphorothioate-linked, units joined directly phosphodiester-linked; [ ] holds rarer units or linkages, { } end groups; capitals alone tell only the bases. r = 2'-OH (RNA); f = 2'-fluoro

Assays:
[1] = biological target: T1, PDGF-AA (human short form) (Homo sapiens, UniProt P04085); assay: Dot blot binding assay, PDGF-AA human short form; details: in the presence of 0.1 mg/mL tRNA
T1 construct: purchased Roche Biomedical
Method: (§1) Dot blot binding assays were performed throughout the selection to monitor the protein binding affinity of the pool. Trace ^32P-labeled RNA was combined with PDGF-AA and incubated at room temperature for 30 min in 1×SHMCK plus 0.1 mg/ml tRNA for a final volume of 20 μl. The reaction was added to a dot blot apparatus (Schleicher and Schuell Minifold-1 Dot Blot, Acrylic), assembled (from top to bottom) with nitrocellulose, nylon, and gel blot membranes. RNA that is bound to protein is captured on the nitrocellulose filter, whereas the non-protein bound RNA is captured on the nylon filter. When a significant positive ratio of binding of RNA in the presence of PDGF-AA versus in the absence of PDGF-AA was seen, the pool was cloned using the TOPO TA cloning kit (Invitrogen, Carlsbad. CA) according to the manufacturer's instructions. The Round 10 pool template was cloned, and 17 sequences were obtained. Only five different sequences were seen, with two major families and one unique sequence (not of the two families). […] Clones with high affinity to PDGF-AA were prepped and screened for functionality in cell-based assays.

PDGF-AA (rat) = PDGF-AA (rat) (Rattus norvegicus, UniProt P28576); assay: Dot blot binding assay, PDGF-AA rat; details: in the presence of 0.1 mg/mL tRNA
Method: as §1

PDGF-AA = biological target: T2, PDGF-AA (Homo sapiens, UniProt P04085); assay: 3T3 proliferation assay (PDGF-AA induced); format: cell-based; details: aptamer 0-1 uM, PDGF-AA 50 ng/ml
T2 construct: purchased R&D Systems
Method: The assay was set up as previously described, using a titration of PDGF-AA aptamer (0-1 uM) against a constant concentration (50 ng/ml) of PDGF-AA protein (R&D Systems).

B1: ARX33P1.E10: PDGF-AA (short form) aptamer, 2′-fluoro pyrimidines (SEQ ID NO: 80) (nucleic acid)
chain: rGrGrGrArArArArGfCrGrArAfUfCrAfUrAfCrAfCrArArGrAfCfCrGrGrArArAfCfUfCrGrGrAfUfUfCfUfUfCrGfCrAfUrGfUrGrGrAfUrGfCrGrAfUfCrArGfUrAfUrGfCfUfCfCrGfCfCrArGrArGrAfCfCrArAfCfCrGrArGrArA
Q: Which results are given for B1?
A: Kd [1]: 133 nM; Kd (PDGF-AA (rat)): 47.1 nM; inhibition of PDGF-AA induced 3T3 cell proliferation (PDGF-AA): do inhibit PDGF-AA induced 3T3 cell proliferation, but are not very potent

B2: ARX33P1.D1: PDGF-AA selection clone, 2′-fluoro pyrimidines (SEQ ID NO: 77) (nucleic acid)
chain: rGrGrGrArArArArGfCrGrArAfUfCrAfUrAfCrAfCrArArGrAfUfCrGfCfCrArGrGrArGfCrArArArGfUfCrAfCrGrGrArGrGrArGfUrGrGrGrGrGfUrAfCrGrArAfUrGfCfUfCfCrGfCfCrArGrArGrAfCfCrArAfCfCrGrArGrArA
modifications: aptamer
Q: How did the “PDGF-AA (human short form) Kd (nM)” value [1] turn out when B2 was run?
A: N.B.

Q: What about the “PDGF-AA (rat) Kd (nM)” value (PDGF-AA (rat)) of the same molecule?
A: N.B.

B3: ARX33P1.D2: PDGF-AA (short form) aptamer, 2′-fluoro pyrimidines (SEQ ID NO: 78) (nucleic acid)
chain: rGrGrGrArArArArGfCrGrArAfUfCrAfUrAfCrAfCrArArGrAfCfCrGrGrGrArAfCfUfCrGrGrAfUfUfCfUfUfCrGfCrAfUrGfUrGrGrAfUrGfCrGrAfUfCrArGfUrAfUrGfCfUfCfCrGfCfCrArGrArGrAfCfCrArAfCfCrGrArGrArA
Q: Which results are given for B3?
A: Kd [1]: 104 nM; Kd (PDGF-AA (rat)): 51.7 nM; inhibition of PDGF-AA induced 3T3 cell proliferation (PDGF-AA): do inhibit PDGF-AA induced 3T3 cell proliferation, but are not very potent

B4: ARX33P1.E11: PDGF-AA selection clone, 2′-fluoro pyrimidines (SEQ ID NO: 81) (nucleic acid)
chain: rGrGrGrArArArArGfCrGrArAfUfCrAfUrAfCrAfCrArArGrArGrArGfUrGrGrArGrGrArGrGfUrAfUrGfUrAfUrGrGfUfUfUrGfUrGfCrGfUfCfUrGrGfUrGfCrGrGfUrGfCfUfCfCrGfCfCrArGrArGrAfCfCrArAfCfCrGrArGrArA
modifications: aptamer
Q: Which results are given for B4?
A: PDGF-AA (human short form) Kd (nM) [1]: N.B.; PDGF-AA (rat) Kd (nM) (PDGF-AA (rat)): N.B.

B5: ARX33P1.E5: PDGF-AA (short form) aptamer, 2′-fluoro pyrimidines (SEQ ID NO: 79) (nucleic acid)
chain: rGrGrGrArArArArGfCrGrArAfUfCrAfUrAfCrAfCrArArGrAfCfCrGrGrGrArAfCfUfCrGrGrAfUfUfCfUfUfCrAfCrAfUrGfUrGrGrAfUrGfUrGrAfUfCrArGfUrAfUrGfCfUfCfCrGfCfCrArGrArGrAfCfCrArAfCfCrGrArGrArA
Q: Which results are given for B5?
A: Kd [1]: 117 nM; Kd (PDGF-AA (rat)): 57.4 nM; inhibition of PDGF-AA induced 3T3 cell proliferation (PDGF-AA): do inhibit PDGF-AA induced 3T3 cell proliferation, but are not very potent
